Results: publication PMC8814668, “Mechanism of Atg9 recruitment by Atg11 in the cytoplasm-to-vacuole targeting pathway” (The Journal of Biological Chemistry, 2022)
“And” between values parts separate entries of the source, which are not always exact repeats. Identical values can stand only once.

T1: EGFP-Atg11 (full-length yeast Atg11) (yeast (S. cerevisiae), UniProt Q12527 1-1178)
T1 construct: Atg11, S. cerevisiae, full length, 135 kDa; also called EGFP tagged Atg11; not shown: EGFP, N-terminal, kept
T1 sequence (looked up): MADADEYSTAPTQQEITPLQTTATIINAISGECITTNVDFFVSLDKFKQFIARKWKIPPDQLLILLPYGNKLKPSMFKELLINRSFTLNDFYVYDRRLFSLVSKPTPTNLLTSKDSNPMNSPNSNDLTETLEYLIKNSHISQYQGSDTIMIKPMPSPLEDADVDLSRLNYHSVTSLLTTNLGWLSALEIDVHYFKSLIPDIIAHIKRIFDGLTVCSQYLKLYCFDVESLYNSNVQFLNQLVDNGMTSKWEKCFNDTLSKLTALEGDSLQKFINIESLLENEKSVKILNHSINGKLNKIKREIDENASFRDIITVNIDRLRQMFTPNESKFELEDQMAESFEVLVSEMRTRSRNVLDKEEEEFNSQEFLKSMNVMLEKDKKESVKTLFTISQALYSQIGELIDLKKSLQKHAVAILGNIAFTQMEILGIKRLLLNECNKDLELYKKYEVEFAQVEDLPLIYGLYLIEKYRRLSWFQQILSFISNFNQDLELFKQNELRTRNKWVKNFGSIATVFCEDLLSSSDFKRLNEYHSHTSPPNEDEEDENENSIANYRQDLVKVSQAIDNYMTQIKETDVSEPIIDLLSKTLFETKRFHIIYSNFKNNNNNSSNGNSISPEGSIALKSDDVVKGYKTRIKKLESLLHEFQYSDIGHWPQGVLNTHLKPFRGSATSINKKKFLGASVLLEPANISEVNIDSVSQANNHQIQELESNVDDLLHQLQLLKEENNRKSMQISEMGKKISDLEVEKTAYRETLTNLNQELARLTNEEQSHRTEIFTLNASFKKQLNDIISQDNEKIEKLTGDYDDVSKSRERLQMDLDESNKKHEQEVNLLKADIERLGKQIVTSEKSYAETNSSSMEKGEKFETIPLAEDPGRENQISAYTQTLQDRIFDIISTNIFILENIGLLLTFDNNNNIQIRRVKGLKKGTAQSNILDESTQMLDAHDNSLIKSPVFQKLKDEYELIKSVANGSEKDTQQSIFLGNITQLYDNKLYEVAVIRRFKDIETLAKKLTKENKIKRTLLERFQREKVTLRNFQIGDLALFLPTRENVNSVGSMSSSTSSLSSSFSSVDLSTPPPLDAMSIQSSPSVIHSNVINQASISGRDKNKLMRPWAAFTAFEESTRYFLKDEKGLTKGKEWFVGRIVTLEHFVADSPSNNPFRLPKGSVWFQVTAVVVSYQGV

B1: Atg9-NTD-(1–255)-mCherry, wild type (domain or fragment, S. cerevisiae, UniProt Q12142 1-255, looked up)
chain: MERDEYQLPNSHGKNTFLSRIFGLQSDEVNPSLNSQEMSNFPLPDIERGSSLLHSTNDSREDVDENDLRVPESDQGTSTEEEDEVDEEQVQAYAPQISDGLDGDHQLNSVTSKENVLETEKSNLERLVEGSTDDSVPKVGQLSSEEEEDNEFINNDGFDDDTPLFQKSKIHEFSSKKSNTIEDGKRPLFFRHILQNNRPQRDTQKLFTSSNAIHHDKDKSANNGPRNINGNQKHGTKYFGSATQPRFTGSPLNNT
notes: mCherry is named for the bead assay; also called mCherry-tagged Atg9-NTD; not shown: mCherry, C-terminal, kept
B2: Atg9-NTD (29–255)-mCherry (domain or fragment, S. cerevisiae, UniProt Q12142 29-255, looked up)
chain: VNPSLNSQEMSNFPLPDIERGSSLLHSTNDSREDVDENDLRVPESDQGTSTEEEDEVDEEQVQAYAPQISDGLDGDHQLNSVTSKENVLETEKSNLERLVEGSTDDSVPKVGQLSSEEEEDNEFINNDGFDDDTPLFQKSKIHEFSSKKSNTIEDGKRPLFFRHILQNNRPQRDTQKLFTSSNAIHHDKDKSANNGPRNINGNQKHGTKYFGSATQPRFTGSPLNNT
notes: also called shorter construct of Atg9-NTD; not shown: mCherry, C-terminal, kept
B3: Atg9-NTD(1–285) (domain or fragment, S. cerevisiae, UniProt Q12142 1-285, looked up)
chain: MERDEYQLPNSHGKNTFLSRIFGLQSDEVNPSLNSQEMSNFPLPDIERGSSLLHSTNDSREDVDENDLRVPESDQGTSTEEEDEVDEEQVQAYAPQISDGLDGDHQLNSVTSKENVLETEKSNLERLVEGSTDDSVPKVGQLSSEEEEDNEFINNDGFDDDTPLFQKSKIHEFSSKKSNTIEDGKRPLFFRHILQNNRPQRDTQKLFTSSNAIHHDKDKSANNGPRNINGNQKHGTKYFGSATQPRFTGSPLNNTNRFTKLFPLRKPNLLSNISVLNNTPEDRIN
notes: Atg9, S. cerevisiae, N-terminal disordered domain, residues 1-285; The EGFP tag was cleaved with 3C protease for the sample of the resonance assignment; also called Atg9 NTD (residues 1–285); fragment 1 to 285

Tests used:
[1] = molecular target: T1, EGFP-Atg11 (full-length yeast Atg11); experiment: ITC; Atg9-NTD (300 to 500 μM, syringe) into EGFP-Atg11 (50 to 100 μM, cell); 25 °C; 20 mM Tris pH 7.4, 300 mM NaCl; single binding site; two replicates; settings: both partners purified
[2] = molecular target: T1, EGFP-Atg11 (full-length yeast Atg11); experiment: NMR titration; 1H-15N HSQC of 0.2 mM labelled Atg9-NTD, unlabelled EGFP-Atg11 added stepwise (0.02, 0.04, 0.08 mM); 20 mM Bis-Tris pH 6, 300 mM NaCl; 298 K, 600 MHz; read-out: loss of peak intensity; settings: both partners purified

Binder	Kd [1]	dH [1]	stoichiometry N [1]	binding result [2]
B1	1090 nM	-5.87 ± 1.34 kcal/mol	0.931 and 0.94	
B2				binds
B3				binds
